Results published in article PMC6405930, “Conservation of the Amyloid Interactome Across Diverse Fibrillar Structures” (Scientific Reports, 2019).

Legend:
FAS4-AD aggregates [1] = test system: T1, FAS4-AD aggregates; assay: Fibril incubation with plasma, quantitative MS/MS of bound proteins; assay type: binding, human; set-up: key to Identification status of plasma protein bound: FAS4-AD: *: Identified, but not quantified; —: Not identified in any of the samples; details: for Identification status of plasma protein bound: FAS4-AD: symbol cells
T1 construct: aggregates of a mutated version of the FAS1-4 domain of TGFBIp
Protocol: (§1) Plasma and CSF solutions were centrifuged (40,000 g, 20 min) to remove any aggregates. The protein concentration was determined using 280 nm absorbance assuming 1 Abs = 1 mg/mL. […] Control samples (without fibril material) were prepared similarly. All samples were incubated at room temperature for one hour under gentle agitation. Fibrils and fibril-bound proteins were pelleted by centrifugation at 17,000 g for 30 minutes. The supernatant (175 μL) was removed and the aggregate was re-suspended in 175 μL PBS and pelleted again before further preparation for gel analysis and spin-filter assisted digest for quantitative MS/MS.
(§2) The fibril-protein pellets were transferred to spin-filters (0.22 μm), washed twice in PBS (100 μL) and once in 1 M NaCl (100 μL). The fibrils and fibril-bound proteins were dissolved by one-hour incubation in 100 μL 6 M guanidinium chloride followed by elution from the spin-filter. The eluted proteins were loaded onto a 3 kDa MWCO filter unit for filter-assisted unfolding, reduction, alkylation, and trypsin digestion. In brief, samples were washed twice in 8 M urea, once in 8 M urea with 50 mM DTT, once in 8 M urea with 50 mM iodoaceteamide, and twice in 8 M Urea. The filter units were dried by centrifugation (14,000 g in 30 minutes) after every addition. Trypsin digestion was carried out with 0.25 μg sequencing grade trypsin from Sigma Aldrich in 50 mM ammonium bicarbonate overnight at 37 °C. The tryptic peptides were collected by centrifugation, acidified with TFA (0.1%) and micro-purified using POROS R2 column material (Applied Biosystems) packed in P200 pipette tips (Sarstedt).
(§3) LC-MS/MS analyses were performed on an EASY-nLC II system (Thermo Fisher Scientific) connected to a TripleTOF 5600+ mass spectrometer (Sciex) equipped with a NanoSpray III source (Sciex) and operated under Analyst TF 1.6.0 control.
(§4) The micro-purified tryptic peptides were dissolved in 0.1% formic acid, injected and trapped on an in-house packed trap column (2 cm × 100 μm I.D) with RP ReproSil-Pur C18-AQ 3 μm resin (Dr. Maisch GmbH). Peptides were eluted from the trap column and separated on a 15 cm analytical column (75 μm i.d.) packed in-house in a pulled emitter with RP ReproSil-Pur C18-AQ 3 μm resin (Dr. Maisch GmbH). Elution from the analytical column was performed with a linear gradient from 5% to 35% phase B (90% acetonitrile with 0.1% formic acid) over 20 min for protein identification and 50 min for quantitative analysis, respectively.
(§5) All samples were analysed three times, yielding nine MS/MS experiments for each fibril for both plasma and CSF. For the area-based extracted ion chromatogram (XIC) quantification, the acquisition method was set up as an information-dependent acquisition (IDA) experiment collecting up to 25 MS/MS spectra in each 1.6 sec cycle using an exclusion window of 6 sec.
(§6) XIC quantification was based on the average ion intensity of the three most abundant peptides for each protein. Only proteins quantified in at least four out of nine MS/MS experiments per fibril were included in the quantification. The total ion scores were visualized after grouping the proteins according to function (Figure S11).
(§7) For each MS/MS experiment, the ion intensities of the individual proteins were normalized to the total ion intensity of that MS/MS experiment to achieve a relative protein composition. The contribution of each protein was averaged over all nine MS/MS experiments (Tables 1 and 2).

FAS4-AD aggregates [2] = test system: T1, FAS4-AD aggregates; assay: Fibril incubation with CSF, quantitative MS/MS of bound proteins; assay type: binding, human; set-up: key to Identification status of CSF protein bound: FAS4-AD: *: Identified, but not quantified; —: Not identified in any of the samples; details: symbol cells
C-36 fibrils [3] = molecular target: T2, C-36 fibrils (Homo sapiens, UniProt P01009); assay: as above; assay type: binding; set-up: key to Identification status of CSF protein bound: C-36: *: Identified, but not quantified; —: Not identified in any of the samples; details: for Identification status of CSF protein bound: C-36: symbol cells
T2 construct: the 36 residue C-terminal fragment of α1-antitrypsin (C-36)

Ab2 fibrils [4] = test system: T3, Ab2 fibrils; assay: as above; assay type: binding, human; details: 4:1 w/w CSF protein:fibril
T3 construct: Two structurally distinct fibrils of the Aβ(1–40) peptide associated with AD

Ab1 fibrils [5] = test system: T4, Ab1 fibrils; assay: Fibril incubation with plasma, quantitative MS/MS of bound proteins; assay type: binding, human; details: 50:1 w/w plasma protein:fibril
T4 construct: Synthetic amyloid β peptide 1–40 was purchased from Caslo Aps (Lyngby, Denmark); purchased Caslo Aps (Lyngby, Denmark); host or cells: synthetic peptide
Protocol: Plasma and CSF solutions were centrifuged (40,000 g, 20 min) to remove any aggregates. The protein concentration was determined using 280 nm absorbance assuming 1 Abs = 1 mg/mL. […] Control samples (without fibril material) were prepared similarly. All samples were incubated at room temperature for one hour under gentle agitation. Fibrils and fibril-bound proteins were pelleted by centrifugation at 17,000 g for 30 minutes. The supernatant (175 μL) was removed and the aggregate was re-suspended in 175 μL PBS and pelleted again before further preparation for gel analysis and spin-filter assisted digest for quantitative MS/MS.
as §2, §3, §4, §5, §6, §7

C-36 fibrils [6] = molecular target: T2, C-36 fibrils; assay: as above; assay type: binding; set-up: key to Identification status of plasma protein bound: C-36: *: Identified, but not quantified; —: Not identified in any of the samples; details: for Identification status of plasma protein bound: C-36: symbol cells
Protocol: as §1, §2, §3, §4, §5, §6, §7

αSN fibrils [7] = molecular target: T5, αSN fibrils (Homo sapiens, UniProt P37840); assay: as above; assay type: binding; set-up: key to Identification status of plasma protein bound: αSN: *: Identified, but not quantified; —: Not identified in any of the samples; details: for Identification status of plasma protein bound: αSN: symbol cells
Protocol: as §1, §2, §3, §4, §5, §6, §7

Ab1 fibrils [8] = test system: T4, Ab1 fibrils; assay: Fibril incubation with CSF, quantitative MS/MS of bound proteins; assay type: binding, human; details: 4:1 w/w CSF protein:fibril
glucagon fibrils [9] = molecular target: T6, glucagon fibrils (Homo sapiens, UniProt P01275); assay: Fibril incubation with plasma, quantitative MS/MS of bound proteins; assay type: binding; details: 50:1 w/w plasma protein:fibril
T6 construct: fibrils of the peptide hormone glucagon
Protocol: as §1, §2, §3, §4, §5, §6, §7

αSN fibrils [10] = molecular target: T5, αSN fibrils; assay: Fibril incubation with CSF, quantitative MS/MS of bound proteins; assay type: binding; set-up: key to Identification status of CSF protein bound: αSN: *: Identified, but not quantified; —: Not identified in any of the samples; details: for Identification status of CSF protein bound: αSN: symbol cells
glucagon fibrils [11] = molecular target: T6, glucagon fibrils; assay: as above; assay type: binding; details: 4:1 w/w CSF protein:fibril
Ab2 fibrils [12] = test system: T3, Ab2 fibrils; assay: Fibril incubation with plasma, quantitative MS/MS of bound proteins; assay type: binding, human; details: 50:1 w/w plasma protein:fibril
Protocol: as §1, §2, §3, §4, §5, §6, §7

T2 sequence (P01009 383-418 limits assumed): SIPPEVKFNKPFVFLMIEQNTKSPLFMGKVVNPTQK
T6 sequence (P01275 53-81 limits assumed): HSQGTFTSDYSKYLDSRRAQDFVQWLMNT

| Molecule | Identification status of plasma protein bound: FAS4-AD (FAS4-AD aggregates [1]) | Identification status of CSF protein bound: FAS4-AD (FAS4-AD aggregates [2]) | Identification status of CSF protein bound: C-36 (C-36 fibrils [3]) | Relative composition of CSF proteins bound: Ab2 (Ab2 fibrils [4]) | Relative composition of plasma proteins bound: Ab1 (Ab1 fibrils [5]) | Identification status of plasma protein bound: C-36 (C-36 fibrils [6]) | Identification status of plasma protein bound: αSN (αSN fibrils [7]) | Relative composition of CSF proteins bound: Ab1 (Ab1 fibrils [8]) | Relative composition of plasma proteins bound: Glucagon (glucagon fibrils [9]) | Identification status of CSF protein bound: αSN (αSN fibrils [10]) | Relative composition of CSF proteins bound: Glucagon (glucagon fibrils [11]) | Relative composition of plasma proteins bound: Ab2 (Ab2 fibrils [12]) | Relative composition of plasma proteins bound: FAS4-AD (FAS4-AD aggregates [1]; 50:1 w/w plasma protein:fibril) | Relative composition of CSF proteins bound: C-36 (C-36 fibrils [3]; 4:1 w/w CSF protein:fibril) | Relative composition of plasma proteins bound: C-36 (C-36 fibrils [6]; 50:1 w/w plasma protein:fibril) | Relative composition of plasma proteins bound: αSN (αSN fibrils [7]; 50:1 w/w plasma protein:fibril) | Relative composition of CSF proteins bound: αSN (αSN fibrils [10]; 4:1 w/w CSF protein:fibril) |
| --- | --- | --- | --- | --- | --- | --- | --- | --- | --- | --- | --- | --- | --- | --- | --- | --- | --- |
| Histidine-rich glycoprotein (protein, UniProt P04196 19-525, looked up) Histidine-rich glycoprotein: VSPTDCSAVEPEAEKALDLINKRRRDGYLFQLLRIADAHLDRVENTTVYYLVLDVQESDCSVLSRKYWNDCEPPDSRRPSEIVIGQCKVIATRHSHESQDLRVIDFNCTTSSVSSALANTKDSPVLIDFFEDTERYRKQANKALEKYKEENDDFASFRVDRIERVARVRGGEGTGYFVDFSVRNCPRHHFPRHPNVFGFCRADLFYDVEALDLESPKNLVINCEVFDPQEHENINGVPPHLGHPFHWGGHERSSTTKPPFKPHGSRDHHHPHKPHEHGPPPPPDERDHSHGPPLPQGPPPLLPMSCSSCQHATFGTNGAQRHSHNNNSSDLHPHKHHSHEQHPHGHHPHAHHPHEHDTHRQHPHGHHPHGHHPHGHHPHGHHPHGHHPHCHDFQDYGPCDPPPHNQGHCCHGHGPPPGHLRRRGPGKGPRPFHCRQIGSVYRLPPLRKGEVLPLPEANFPSFPLPHHKHPLKPDNQPFPQSVSESCPGKFKSGFPQVSMFFTHTFPK | — | — | * | 0.6 ± 0.2 % of total protein | 2.5 ± 0.1 % of total protein | — | — | 0.4 ± 0.1 % of total protein | 0.4 ± 0.0 % of total protein | — | 0.1 ± 0.0 % of total protein | 1.8 ± 0.1 % of total protein |  |  |  |  |  |
| Apolipoprotein A-IV: plasma/CSF protein bound to fibrils (protein, UniProt P06727 21-396, looked up) Apolipoprotein A-IV: EVSADQVATVMWDYFSQLSNNAKEAVEHLQKSELTQQLNALFQDKLGEVNTYAGDLQKKLVPFATELHERLAKDSEKLKEEIGKELEELRARLLPHANEVSQKIGDNLRELQQRLEPYADQLRTQVSTQAEQLRRQLTPYAQRMERVLRENADSLQASLRPHADELKAKIDQNVEELKGRLTPYADEFKVKIDQTVEELRRSLAPYAQDTQEKLNHQLEGLTFQMKKNAEELKARISASAEELRQRLAPLAEDVRGNLRGNTEGLQKSLAELGGHLDQQVEEFRRRVEPYGENFNKALVQQMEQLRQKLGPHAGDVEGHLSFLEKDLRDKVNSFFSTFKEKESQDKTLSLPELEQQQEQQQEQQQEQVQMLAPLES |  | — |  | 0.5 ± 0.0 % of total protein | 2.7 ± 0.1 % of total protein |  |  | 1.2 ± 0.1 % of total protein | 1.9 ± 0.2 % of total protein |  | 0.5 ± 0.1 % of total protein | 3.5 ± 0.5 % of total protein | 1.6 ± 0.2 % of total protein | 1.0 ± 0.1 % of total protein | 2.4 ± 0.4 % of total protein | 3.8 ± 0.6 % of total protein | 1.5 ± 0.2 % of total protein |
| Ig γ -3 chain C region: plasma/CSF protein bound to fibrils (protein, UniProt P01860 1-446, looked up) Immunoglobulin heavy constant …: ASTKGPSVFPLAPCSRSTSGGTAALGCLVKDYFPEPVTVSWNSGALTSGVHTFPAVLQSSGLYSLSSVVTVPSSSLGTQTYTCNVNHKPSNTKVDKRVELKTPLGDTTHTCPRCPEPKSCDTPPPCPRCPEPKSCDTPPPCPRCPEPKSCDTPPPCPRCPAPELLGGPSVFLFPPKPKDTLMISRTPEVTCVVVDVSHEDPEVQFKWYVDGVEVHNAKTKPREEQYNSTFRVVSVLTVLHQDWLNGKEYKCKVSNKALPAPIEKTISKTKGQPREPQVYTLPPSREEMTKNQVSLTCLVKGFYPSDIAVEWESSGQPENNYNTTPPMLDSDGSFFLYSKLTVDKSRWQQGNIFSCSVMHEALHNRFTQKSLSLSPELQLEESCAEAQDGELDGLWTTITIFITLFLLSVCYSATVTFFKVKWIFSSVVDLKQTIIPDYRNMIGQGA | — | — | * | 3.0 ± 0.2 % of total protein | 1.0 ± 0.1 % of total protein | * | * | 2.5 ± 0.1 % of total protein | 1.0 ± 0.1 % of total protein | * | 1.4 ± 0.5 % of total protein | 1.1 ± 0.1 % of total protein |  |  |  |  |  |
